This assay deals with mouse Atg7 (mAtg7) (mouse) (UniProt Q9D906).
Chain of mouse Atg7 (mAtg7) (mouse) (Q9D906 whole entry): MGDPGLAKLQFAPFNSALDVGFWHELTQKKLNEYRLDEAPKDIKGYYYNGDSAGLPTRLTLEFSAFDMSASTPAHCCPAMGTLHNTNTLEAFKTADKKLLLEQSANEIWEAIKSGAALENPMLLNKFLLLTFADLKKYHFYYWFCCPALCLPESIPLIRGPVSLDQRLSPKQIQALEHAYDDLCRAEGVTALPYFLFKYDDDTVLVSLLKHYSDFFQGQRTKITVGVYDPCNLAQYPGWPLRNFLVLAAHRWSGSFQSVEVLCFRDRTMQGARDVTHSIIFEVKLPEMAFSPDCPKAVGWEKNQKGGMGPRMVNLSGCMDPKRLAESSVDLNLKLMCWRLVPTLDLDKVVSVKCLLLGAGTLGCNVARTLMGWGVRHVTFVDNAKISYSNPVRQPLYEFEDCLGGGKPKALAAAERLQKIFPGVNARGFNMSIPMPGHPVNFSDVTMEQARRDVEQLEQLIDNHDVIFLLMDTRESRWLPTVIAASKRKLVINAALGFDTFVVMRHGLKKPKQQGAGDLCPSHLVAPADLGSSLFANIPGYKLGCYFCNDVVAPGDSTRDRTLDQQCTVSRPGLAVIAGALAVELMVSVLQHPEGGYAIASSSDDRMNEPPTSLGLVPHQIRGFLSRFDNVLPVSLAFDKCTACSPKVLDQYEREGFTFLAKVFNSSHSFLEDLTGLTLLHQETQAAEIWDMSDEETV

Turning to “hAtg3^∆90-190 (from UniProt Q9NT62 1-314) (enzyme)”, the LC3B-hAtg3^∆90-190 thioester intermediate formed, after 1 h worked out at 25% and the LC3B–PE conjugase activity compared to the wild type (in vitro conjugation assay) worked out at 50%. “human Atg3 (hAtg3), wild type (from UniProt Q9NT62 1-314) (enzyme)” showed an LC3B-hAtg3 thioester intermediate formed, within 30 min of 70%.

For the origin of these results see PMC7809043.
